Test results: PMC10786891, “Massively parallel profiling of RNA-targeting CRISPR-Cas13d”

T1: EsCas13d, nuclease-dead (Eubacterium siraeum, UniProt B0MS50, R295A;H300A;R849A;H854A)
T1 sequence: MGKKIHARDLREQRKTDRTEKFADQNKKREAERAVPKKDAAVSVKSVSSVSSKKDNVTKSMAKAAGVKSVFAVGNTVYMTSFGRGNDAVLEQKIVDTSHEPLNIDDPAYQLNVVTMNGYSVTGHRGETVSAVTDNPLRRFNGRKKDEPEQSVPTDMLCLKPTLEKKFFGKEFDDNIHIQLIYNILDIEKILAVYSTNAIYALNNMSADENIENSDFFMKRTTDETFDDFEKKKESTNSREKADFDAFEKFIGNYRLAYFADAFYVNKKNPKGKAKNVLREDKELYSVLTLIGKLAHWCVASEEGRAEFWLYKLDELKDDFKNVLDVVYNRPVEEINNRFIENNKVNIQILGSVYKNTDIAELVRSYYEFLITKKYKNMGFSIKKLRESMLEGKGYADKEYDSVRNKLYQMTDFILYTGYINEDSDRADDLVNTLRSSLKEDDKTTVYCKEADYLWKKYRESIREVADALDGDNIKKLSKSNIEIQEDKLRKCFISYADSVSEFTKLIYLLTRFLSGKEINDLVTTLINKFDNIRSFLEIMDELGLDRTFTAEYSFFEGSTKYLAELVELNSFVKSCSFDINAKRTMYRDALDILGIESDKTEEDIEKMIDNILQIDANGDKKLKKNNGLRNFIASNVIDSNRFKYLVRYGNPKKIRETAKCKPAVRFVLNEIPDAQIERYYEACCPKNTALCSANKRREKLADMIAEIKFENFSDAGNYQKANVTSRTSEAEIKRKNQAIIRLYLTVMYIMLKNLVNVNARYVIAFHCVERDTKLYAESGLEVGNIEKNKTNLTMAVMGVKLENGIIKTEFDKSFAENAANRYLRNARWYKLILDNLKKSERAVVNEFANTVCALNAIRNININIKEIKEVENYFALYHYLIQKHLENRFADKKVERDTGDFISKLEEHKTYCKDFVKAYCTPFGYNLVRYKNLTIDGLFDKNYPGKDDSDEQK

B1: target 1 U8G,C21A (mixed)
RNA 1: CACCCGUGCAAAAAUGCAGGGGUCUAAAACUGAGCGGAUAACCUCUCUAUGG
RNA 2: GGGAAUGGAUCCACAUCUACGAAUUCGUACAAUAGAGAGGUUAGCCGCUCACCGAGAUCGGAAGAGCACACGU
B2: target 1 insA 3' of 21,insG 3' of 6 (mixed)
RNA 1: CACCCGUGCAAAAAUGCAGGGGUCUAAAACUGAGCGGAUAACCUCUCUAUGG
RNA 2: GGGAAUGGAUCCACAUCUACGAAUUCGUACCAAUAGAGAGGUUAUCCGGCUCACCGAGAUCGGAAGAGCACACGU
B3: target 1 G15U,C22A (mixed)
RNA 1: CACCCGUGCAAAAAUGCAGGGGUCUAAAACUGAGCGGAUAACCUCUCUAUGG
RNA 2: GGGAAUGGAUCCACAUCUACGAAUUCGUAACAUAGAUAGGUUAUCCGCUCACCGAGAUCGGAAGAGCACACGU
B4: target 1 insA 3' of 22,insG 3' of 10 (mixed)
RNA 1: CACCCGUGCAAAAAUGCAGGGGUCUAAAACUGAGCGGAUAACCUCUCUAUGG
RNA 2: GGGAAUGGAUCCACAUCUACGAAUUCGUACACAUAGAGAGGUUGAUCCGCUCACCGAGAUCGGAAGAGCACACGU
B5: target 1 U11C,C22U (mixed)
RNA 1: CACCCGUGCAAAAAUGCAGGGGUCUAAAACUGAGCGGAUAACCUCUCUAUGG
RNA 2: GGGAAUGGAUCCACAUCUACGAAUUCGUAUCAUAGAGAGGCUAUCCGCUCACCGAGAUCGGAAGAGCACACGU
B6: target 1 insU 3' of 13,insC 3' of 1 (mixed)
RNA 1: CACCCGUGCAAAAAUGCAGGGGUCUAAAACUGAGCGGAUAACCUCUCUAUGG
RNA 2: GGGAAUGGAUCCACAUCUACGAAUUCGUACCAUAGAGAGUGUUAUCCGCUCACCCGAGAUCGGAAGAGCACACGU
B7: target 1 insA 3' of 19,insG 3' of 9 (mixed)
RNA 1: CACCCGUGCAAAAAUGCAGGGGUCUAAAACUGAGCGGAUAACCUCUCUAUGG
RNA 2: GGGAAUGGAUCCACAUCUACGAAUUCGUACCAUAAGAGAGGUUAGUCCGCUCACCGAGAUCGGAAGAGCACACGU
B8: target 1 insU 3' of 15,insU 3' of 15 (mixed)
RNA 1: CACCCGUGCAAAAAUGCAGGGGUCUAAAACUGAGCGGAUAACCUCUCUAUGG
RNA 2: GGGAAUGGAUCCACAUCUACGAAUUCGUACCAUAGAGUUAGGUUAUCCGCUCACCGAGAUCGGAAGAGCACACGU
B9: target 1 insC 3' of 18,insC 3' of 9 (mixed)
RNA 1: CACCCGUGCAAAAAUGCAGGGGUCUAAAACUGAGCGGAUAACCUCUCUAUGG
RNA 2: GGGAAUGGAUCCACAUCUACGAAUUCGUACCAUACGAGAGGUUACUCCGCUCACCGAGAUCGGAAGAGCACACGU
B10: target 1 insC 3' of 11,insA 3' of 10 (mixed)
RNA 1: CACCCGUGCAAAAAUGCAGGGGUCUAAAACUGAGCGGAUAACCUCUCUAUGG
RNA 2: GGGAAUGGAUCCACAUCUACGAAUUCGUACCAUAGAGAGGUCUAAUCCGCUCACCGAGAUCGGAAGAGCACACGU
B11: target 1 insC 3' of 15,insA 3' of 8 (mixed)
RNA 1: CACCCGUGCAAAAAUGCAGGGGUCUAAAACUGAGCGGAUAACCUCUCUAUGG
RNA 2: GGGAAUGGAUCCACAUCUACGAAUUCGUACCAUAGAGCAGGUUAUACCGCUCACCGAGAUCGGAAGAGCACACGU
B12: target 1 A1U (mixed)
RNA 1: CACCCGUGCAAAAAUGCAGGGGUCUAAAACUGAGCGGAUAACCUCUCUAUGG
RNA 2: GGGAAUGGAUCCACAUCUACGAAUUCGUACCAUAGAGAGGUUAUCCGCUCUCCGAGAUCGGAAGAGCACACGU
B13: target 1 U8G,A16G (mixed)
RNA 1: CACCCGUGCAAAAAUGCAGGGGUCUAAAACUGAGCGGAUAACCUCUCUAUGG
RNA 2: GGGAAUGGAUCCACAUCUACGAAUUCGUACCAUAGGGAGGUUAGCCGCUCACCGAGAUCGGAAGAGCACACGU
B14: target 1 insU 3' of 13,insG 3' of 1 (mixed)
RNA 1: CACCCGUGCAAAAAUGCAGGGGUCUAAAACUGAGCGGAUAACCUCUCUAUGG
RNA 2: GGGAAUGGAUCCACAUCUACGAAUUCGUACCAUAGAGAGUGUUAUCCGCUCAGCCGAGAUCGGAAGAGCACACGU
B15: target 1 C6G,U10G (mixed)
RNA 1: CACCCGUGCAAAAAUGCAGGGGUCUAAAACUGAGCGGAUAACCUCUCUAUGG
RNA 2: GGGAAUGGAUCCACAUCUACGAAUUCGUACCAUAGAGAGGUGAUCGGCUCACCGAGAUCGGAAGAGCACACGU
B16: target 1 insC 3' of 20,insG 3' of 7 (mixed)
RNA 1: CACCCGUGCAAAAAUGCAGGGGUCUAAAACUGAGCGGAUAACCUCUCUAUGG
RNA 2: GGGAAUGGAUCCACAUCUACGAAUUCGUACCACUAGAGAGGUUAUCGCGCUCACCGAGAUCGGAAGAGCACACGU
B17: target 1 insA 3' of 15,insU 3' of 13 (mixed)
RNA 1: CACCCGUGCAAAAAUGCAGGGGUCUAAAACUGAGCGGAUAACCUCUCUAUGG
RNA 2: GGGAAUGGAUCCACAUCUACGAAUUCGUACCAUAGAGAAGUGUUAUCCGCUCACCGAGAUCGGAAGAGCACACGU
B18: target 1 insC 3' of 10,insG 3' of 4 (mixed)
RNA 1: CACCCGUGCAAAAAUGCAGGGGUCUAAAACUGAGCGGAUAACCUCUCUAUGG
RNA 2: GGGAAUGGAUCCACAUCUACGAAUUCGUACCAUAGAGAGGUUCAUCCGCGUCACCGAGAUCGGAAGAGCACACGU
B19: target 1 insU 3' of 21,insC 3' of 11 (mixed)
RNA 1: CACCCGUGCAAAAAUGCAGGGGUCUAAAACUGAGCGGAUAACCUCUCUAUGG
RNA 2: GGGAAUGGAUCCACAUCUACGAAUUCGUACCUAUAGAGAGGUCUAUCCGCUCACCGAGAUCGGAAGAGCACACGU
B20: target 1 insA 3' of 17,insU 3' of 16 (mixed)
RNA 1: CACCCGUGCAAAAAUGCAGGGGUCUAAAACUGAGCGGAUAACCUCUCUAUGG
RNA 2: GGGAAUGGAUCCACAUCUACGAAUUCGUACCAUAGAAUGAGGUUAUCCGCUCACCGAGAUCGGAAGAGCACACGU
B21: target 1 insA 3' of 15,insA 3' of 7 (mixed)
RNA 1: CACCCGUGCAAAAAUGCAGGGGUCUAAAACUGAGCGGAUAACCUCUCUAUGG
RNA 2: GGGAAUGGAUCCACAUCUACGAAUUCGUACCAUAGAGAAGGUUAUCACGCUCACCGAGAUCGGAAGAGCACACGU
B22: target 1 insC 3' of 13,insG 3' of 7 (mixed)
RNA 1: CACCCGUGCAAAAAUGCAGGGGUCUAAAACUGAGCGGAUAACCUCUCUAUGG
RNA 2: GGGAAUGGAUCCACAUCUACGAAUUCGUACCAUAGAGAGCGUUAUCGCGCUCACCGAGAUCGGAAGAGCACACGU
B23: target 1 U11A,C21A (mixed)
RNA 1: CACCCGUGCAAAAAUGCAGGGGUCUAAAACUGAGCGGAUAACCUCUCUAUGG
RNA 2: GGGAAUGGAUCCACAUCUACGAAUUCGUACAAUAGAGAGGAUAUCCGCUCACCGAGAUCGGAAGAGCACACGU
B24: target 1 insU 3' of 13,insA 3' of 2 (mixed)
RNA 1: CACCCGUGCAAAAAUGCAGGGGUCUAAAACUGAGCGGAUAACCUCUCUAUGG
RNA 2: GGGAAUGGAUCCACAUCUACGAAUUCGUACCAUAGAGAGUGUUAUCCGCUCAACCGAGAUCGGAAGAGCACACGU
B25: target 1 C2A,U11A (mixed)
RNA 1: CACCCGUGCAAAAAUGCAGGGGUCUAAAACUGAGCGGAUAACCUCUCUAUGG
RNA 2: GGGAAUGGAUCCACAUCUACGAAUUCGUACCAUAGAGAGGAUAUCCGCUAACCGAGAUCGGAAGAGCACACGU
B26: target 1 insA 3' of 10,insU 3' of 9 (mixed)
RNA 1: CACCCGUGCAAAAAUGCAGGGGUCUAAAACUGAGCGGAUAACCUCUCUAUGG
RNA 2: GGGAAUGGAUCCACAUCUACGAAUUCGUACCAUAGAGAGGUUAAUUCCGCUCACCGAGAUCGGAAGAGCACACGU
B27: target 1 A16C,U19C (mixed)
RNA 1: CACCCGUGCAAAAAUGCAGGGGUCUAAAACUGAGCGGAUAACCUCUCUAUGG
RNA 2: GGGAAUGGAUCCACAUCUACGAAUUCGUACCACAGCGAGGUUAUCCGCUCACCGAGAUCGGAAGAGCACACGU
B28: target 1 insA 3' of 21,insA 3' of 13 (mixed)
RNA 1: CACCCGUGCAAAAAUGCAGGGGUCUAAAACUGAGCGGAUAACCUCUCUAUGG
RNA 2: GGGAAUGGAUCCACAUCUACGAAUUCGUACCAAUAGAGAGAGUUAUCCGCUCACCGAGAUCGGAAGAGCACACGU

Target: T1, EsCas13d, nuclease-dead
Assay: crRNA (strand 1, pre-loaded); Mg2+; 40 mM Tris-HCl pH 7.5, 150 mM NaCl, 6 mM MgCl2, 1 mM DTT, 0.1% Tween-20, 0.2 mg/ml BSA; 25 C; 10 min per concentration, then washed
Details: tags: His6-TwinStrep-SUMO cleaved; N-terminal SNAP kept (SNAP-Surface 488); label: 3' end held by stalled T7 RNA polymerase

Binder | Kd [µM]
B1 | 0.054 ± 0.011
B2 | 0.0221 ± 0.0023
B3 | 0.04 ± 0.006
B4 | 0.055 ± 0.013
B5 | 0.0212 ± 0.0017
B6 | 0.021 ± 0.004
B7 | 0.037 ± 0.004
B8 | 0.0176 ± 0.0012
B9 | 0.058 ± 0.008
B10 | 0.03 ± 0.004
B11 | 0.0201 ± 0.0021
B12 | 0.0085 ± 0.0006
B13 | 0.0394 ± 0.0035
B14 | 0.0117 ± 0.0017
B15 | 0.0152 ± 0.0009
B16 | 0.0088 ± 0.0004
B17 | 0.019 ± 0.004
B18 | 0.0086 ± 0.0004
B19 | 0.081 ± 0.021
B20 | 0.038 ± 0.008
B21 | 0.00465 ± 0.00017
B22 | 0.0161 ± 0.001
B23 | 0.064 ± 0.024
B24 | 0.0162 ± 0.0018
B25 | 0.0216 ± 0.0014
B26 | 0.0139 ± 0.0005
B27 | 0.094 ± 0.021
B28 | 0.0117 ± 0.0007
